Patent US20220411487A1 (Regeneron, published 2022)
Residue numbers refer to the chain shown, from its start. Names and notes keep the numbering of the source.

B1: REGN7999 (antibody, human IgG4 S228P, kappa, V domains shown)
VH: EVQLVESGGGLVQPGGSLRLSCAASGFTFSSYAMTWVRQAPGKGLEWVSAISGSDTSTYYADSVKGRFTISRDNSKNTLFLQMNSLRAEDTAVYYCAKHQDYDFSYYYSAMDVWGQGTTVTVSS
VL: DIQMTQSPSSLSASVGDRVIITCRASQDFNSWLAWYQQKPGKAPKLLIYAASSLQSGVPSRFSGSGSGTDFTLTISSLQPEDFATYYCQQTDSFPFTFGPGTKVDIKR
notes: fully human; human IgG4 Fc with hinge S108P; also called mAb41450
B2: REGN7977 (antibody, V domains shown)
VH: EVQLVESGGGLVKPGGSLRVSCAASGVTFSNVWMSWVRQVPGKGLEWVGRIKSKTDGGTTDYAAPVKGRFTISKDDSKNTLFLQMNSLKTEDTAVYYCTTETGDFWSGYYPRFQHWGQGTLVTVSS
VL: DIQMTQSPSSLSASVGDRVTITCRASQYISTYLNWYQQKPGKAPSLLIYAASSLQSGVPSRFSGSGSGTDFTLTISSLQPEDFASYSCQQSYSTPPYTFGQGTKLEIKR
notes: fully human; human IgG4 Fc with hinge S108P; also called mAb41465
B3: REGN7974 (antibody, human IgG4 S228P, kappa, V domains shown)
VH: EVQLVESGGGLVQPGRSLRLSCIASGFNFGDYGMSWVRQAPGKGLEWVGFIRSKAYGGTTEYAASVKGRFTISRDDSKSIAYLQMNSLKTEDAAMYYCSRDYYDILTGYYGDYWGQGTLVTVSS
VL: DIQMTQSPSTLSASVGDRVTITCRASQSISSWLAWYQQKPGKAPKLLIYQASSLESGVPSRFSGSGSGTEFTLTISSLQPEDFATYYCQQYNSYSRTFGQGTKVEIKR
notes: fully human; human IgG4 Fc with hinge S108P; also called mAb41422
B4: REGN8023 (antibody, human IgG4 S228P, kappa, V domains shown)
VH: EVQLVESGGGLVKPGGSLRISCAASGFIFVDYAMHWVRQAPGKGLEWVSGISWNSGSIGYADSVKGRFTISRDNAKKSLYLQMSGLRPEDTALYYCVKSGFYYVRSYFDNWGQGTLVTVSS
VL: DIVMTQSPLSLPVTPGEPASISCRSSQSLLDSDDGNTYLDWYLRKPGQSPQLLIYTLSYRASGVPDRFSGSGSGTDFTLKISRVEADDVGVYYCMQRIEFPLTFGGGTKVEIKR
notes: fully human; human IgG4 Fc with hinge S108P; also called mAb37699
B5: REGN7969 (antibody, human IgG4 S228P, kappa, V domains shown)
VH: QVQLVESGGGVVQPGRSLRLSCAASGFTFNNYGMHWVRQAPGKGLEWVAIISYDGSNEYYSDSVKGRFTISRDNSKNTLYLQMNSLRAEDTAVYYCARDQDYGGNLFHYWGQGTLVTVSS
VL: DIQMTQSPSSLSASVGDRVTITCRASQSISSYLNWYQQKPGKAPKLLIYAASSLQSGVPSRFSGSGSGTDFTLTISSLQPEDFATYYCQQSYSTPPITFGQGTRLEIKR
notes: fully human; human IgG4 Fc with hinge S108P; also called mAb37746
B6: REGN7971 (antibody, human IgG4 S228P, kappa, V domains shown)
VH: B5 VH with N30S, N31T, E58D, S61L, S85N, R98K, D101G, H108A, Y109S
VL: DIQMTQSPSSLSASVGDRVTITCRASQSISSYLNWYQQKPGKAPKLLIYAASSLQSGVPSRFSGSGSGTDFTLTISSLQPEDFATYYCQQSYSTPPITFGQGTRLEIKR
notes: fully human; human IgG4 Fc with hinge S108P; also called mAb37763

Legend:
[1] = target: T1, full length cynomolgous monkey TMPRSS6 on HEK293 cells (HEK293/mfTMPRSS6) (cynomolgous monkey/Macaca fascicularis, UniProt Q8IU80 10-811 (human entry)); experiment: cell-based or functional assay
T1 chain: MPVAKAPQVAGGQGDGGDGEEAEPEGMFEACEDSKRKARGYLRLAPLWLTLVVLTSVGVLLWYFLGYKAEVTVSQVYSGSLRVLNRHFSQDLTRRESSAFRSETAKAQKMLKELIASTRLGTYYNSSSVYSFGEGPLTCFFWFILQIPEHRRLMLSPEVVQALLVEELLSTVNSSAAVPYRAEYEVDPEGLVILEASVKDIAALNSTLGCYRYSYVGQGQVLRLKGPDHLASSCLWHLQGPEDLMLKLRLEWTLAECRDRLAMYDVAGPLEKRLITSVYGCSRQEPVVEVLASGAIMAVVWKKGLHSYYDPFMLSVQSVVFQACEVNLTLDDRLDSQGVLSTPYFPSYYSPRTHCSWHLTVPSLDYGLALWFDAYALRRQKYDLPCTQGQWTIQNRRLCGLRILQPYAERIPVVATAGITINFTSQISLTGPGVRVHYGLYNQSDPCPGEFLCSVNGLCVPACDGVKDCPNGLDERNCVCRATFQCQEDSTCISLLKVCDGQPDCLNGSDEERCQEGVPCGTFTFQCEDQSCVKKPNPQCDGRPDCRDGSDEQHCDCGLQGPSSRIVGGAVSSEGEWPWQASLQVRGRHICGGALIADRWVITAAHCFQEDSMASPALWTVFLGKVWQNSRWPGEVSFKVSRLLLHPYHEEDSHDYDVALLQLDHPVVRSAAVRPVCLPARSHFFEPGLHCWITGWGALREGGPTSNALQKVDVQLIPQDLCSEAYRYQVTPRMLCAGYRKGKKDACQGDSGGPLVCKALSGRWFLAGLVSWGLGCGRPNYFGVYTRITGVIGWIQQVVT

[2] = target: T1, full length cynomolgous monkey TMPRSS6 …; experiment: cell-based or functional assay
[3] = target: T2, hTMPRSS6_S762A-MMH (human, UniProt Q8IU80 77-811); experiment: SPR, mAb captured via anti-hFc, 37 C
T2 construct: also called REGN5330; human TMPRSS6_S762A-MMH
Protocol: (§1) The equilibrium dissociation constant (KD) for TMPRSS6 binding to different TMPRSS6 monoclonal antibodies (mAbs) was determined using a real-time surface plasmon resonance biosensor using a Biacore 4000 instrument. All binding studies were performed in 10 mM HEPES, 150 mM NaCl, 3 mM EDTA, and 0.05% v/v Surfactant Tween-20, pH 7.4 (HBS-ET) running buffer at 25° C. and 37° C. The Biacore CM5 sensor chip surface was first derivatized by amine coupling with a human Fc specific mouse mAb to capture different TMPRSS6 mAbs. […] Different concentrations (100 nM to 3.7 nM, 3-fold serial dilution) of the TMPRSS6 reagent proteins prepared in HBS-EP running buffer were injected over the TMPRSS6 mAb captured surface for 150 seconds at a flow rate of 30 μL/min and their dissociation in HBS-ET running buffer was monitored for 10 minutes. At the end of each cycle, the TMPRSS6 mAb captured surface was regenerated using a 12 second injection of 20 mM phosphoric acid.
(§2) The association rate (kₐ) and dissociation rate (kd) were determined by fitting the real-time binding sensorgrams to a 1:1 binding model with mass transport limitation using Scrubber 2.0 (BioLogic Software) curve-fitting software. Binding dissociation equilibrium constant (KD) and dissociative half-life (t½) were calculated from the kinetic rates as: […]

[4] = target: T3, mfTMPRSS6_S751A-MMH (Macaca fascicularis, UniProt Q8IU80 77-811 (human entry)); experiment: SPR, mAb captured via anti-hFc, 37 C
T3 construct: also called REGN5977; Macaca fascicularis TMPRSS6 extracellular domain with a S751A mutation and a C-terminal myc-myc-hexahistidine tag
T3 chain: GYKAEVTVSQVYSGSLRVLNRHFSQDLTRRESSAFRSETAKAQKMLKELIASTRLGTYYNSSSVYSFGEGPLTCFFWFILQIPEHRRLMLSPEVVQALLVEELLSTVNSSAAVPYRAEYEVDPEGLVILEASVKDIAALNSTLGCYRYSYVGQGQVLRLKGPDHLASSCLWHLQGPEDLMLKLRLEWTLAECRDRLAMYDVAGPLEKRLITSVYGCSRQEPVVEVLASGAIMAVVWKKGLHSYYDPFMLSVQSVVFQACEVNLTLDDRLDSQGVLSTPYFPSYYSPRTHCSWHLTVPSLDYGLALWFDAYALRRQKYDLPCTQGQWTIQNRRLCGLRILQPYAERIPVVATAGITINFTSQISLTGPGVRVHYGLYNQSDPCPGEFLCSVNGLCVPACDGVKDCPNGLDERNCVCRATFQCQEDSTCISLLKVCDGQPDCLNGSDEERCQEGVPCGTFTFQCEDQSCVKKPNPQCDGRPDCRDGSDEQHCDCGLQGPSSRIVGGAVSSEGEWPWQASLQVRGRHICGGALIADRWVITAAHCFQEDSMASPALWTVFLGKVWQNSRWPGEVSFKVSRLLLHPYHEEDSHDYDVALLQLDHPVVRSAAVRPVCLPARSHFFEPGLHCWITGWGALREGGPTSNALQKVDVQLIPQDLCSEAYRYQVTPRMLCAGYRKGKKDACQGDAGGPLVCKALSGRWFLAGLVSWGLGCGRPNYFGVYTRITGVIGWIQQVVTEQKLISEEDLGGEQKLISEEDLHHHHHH
Protocol: as §1, §2

Binder	% inhibition, HEK293 bioassay, 30 min pre-incubation 25 C [1] [%]	IC50, HEK293 bioassay, 30 min pre-incubation 25 C [1] [nM]	% inhibition, HEK293 bioassay, overnight pre-incubation 37 C [2] [%]	IC50, HEK293 bioassay, overnight pre-incubation 37 C [2] [nM]	100 nM Ag Bound [3] [RU]	Kd [3] [nM]	koff [3] [s⁻¹]	kon [3] [M⁻¹ s⁻¹]	t½ [3] [min]	100 nM Ag Bound [4] [RU]	Kd [4] [nM]	koff [4] [s⁻¹]	kon [4] [M⁻¹ s⁻¹]	t½ [4] [min]
B1	90	6.5	91	21	129	2.3	0.000354	154000	33	143	0.75	0.000306	408000	38
B2	87	8.1	81	> 10	134	11	0.00124	113000	9	133	11.9	0.00247	207000	4.7
B3	81	30	31	> 10	206	21.2	0.00235	111000	4.9	183	16.1	0.00405	251000	2.9
B4	94	0.66	91	2.8	205	2.24	0.000935	418000	12	206	1	0.000634	632000	18
B5	87	8.8	89	13	110	4.4	0.000975	222000	12	105	3.27	0.000924	283000	12
B6	87	3.1	89	6	169	2.44	0.000637	261000	18	160	1.68	0.00061	363000	19
